The text below walks through data of the Immune Epitope Database (IEDB).

Test [1] has as its target HLA-B*15:03. The test is described as follows: IEDB peptide-MHC binding, purified MHC/competitive/radioactivity; filed as Kd, often an IC50 or EC50 that approximates it; ≥ and ≤ were set here for values at or beyond the usual limits of such assays.
Test [2] addresses HLA-A*30:01. Described as above.
Test [3] addresses HLA-A*32:01. Described as above.
The target in test [4] is HLA-B*08:01. Described as above.
Test [5] has as its target HLA-B*15:01. The description is as above.
In test [6] the target is HLA-A*01:01. The description is as above.
For test [7], the target named is HLA-A*02:01. The description is as above.
In test [8] the target is HLA-A*02:02. The test is described as above.
In test [9] the target is HLA-A*02:03. The test is described as above.
The target of test [10] is HLA-A*02:06. Described as above.
Test [11] has as its target HLA-A*03:01. Described as above.
In test [12] the target is HLA-A*11:01. The test is described as above.
Test [13] deals with HLA-A*31:01. The test is described as above.
In test [14] the target is HLA-A*33:01. Described as above.
For test [15], the target named is HLA-A*68:01. The description is as above.
The target in test [16] is HLA-A*68:02. Described as above.
In test [17] the target is HLA-B*07:02. The description is as above.
For test [18], the target named is HLA-B*35:01. The test is described as above.
Test [19] addresses HLA-B*51:01. The test is described as above.
Test [20] addresses HLA-B*53:01. Described as above.
The target in test [21] is HLA-B*54:01. The description is as above.
The target in test [22] is HLA-A*23:01. Described as above. The following applies: source organism: Vaccinia virus WR.
Test [23] deals with HLA-A*24:02. Described as above. The note with it: source organism: Vaccinia virus WR.
For test [24], the target named is HLA-A*26:01. The description is as above. The note with it: source organism: Vaccinia virus WR.
For test [25], the target named is HLA-A*29:02. The test is described as above. The note with it: source organism: Vaccinia virus WR.
Test [26] concerns the target HLA-A*30:02. The test is described as above. The note with it: source organism: Vaccinia virus WR.
Test [27] addresses HLA-B*18:01. The test is described as follows: IEDB peptide-MHC binding, purified MHC/direct/fluorescence; filed as Kd, often an IC50 or EC50 that approximates it; ≥ and ≤ were set here for values at or beyond the usual limits of such assays. The following applies: source organism: Entamoeba histolytica HM-1:IMSS.
Test [28] has as its target HLA-B*40:01. The description is as above. The following applies: source organism: Entamoeba histolytica HM-1:IMSS.
Setting [29] is: source organism: Vaccinia virus Copenhagen.
The mark [30] stands for this setting: source organism: Vaccinia virus WR.
Where [31] appears, read: source organism: Hepacivirus hominis.

Take CLNNSLMSF: the Kd (in general, the equilibrium constant for the complex coming apart) in [1] (setting [29]) came to 0.000768 µM.
Turning to EEVNIDNSF, the Kd in test [1] (setting [30]) was determined as 1.2 µM.
FIKNKIHLL: the dissociation constant (Kd) in test [2] (setting [30]) is 2.52 µM; in [3] (setting [30]) it was 2.81 µM; in [4] (setting [30]), 0.000821 µM; in [5] (setting [30]), 0.0977 µM; in test [1] (setting [30]), 6.91 µM.
Turning to FMLMETMFF, in test [1] (setting [30]), the Kd is 0.000188 µM.
As for FPKNDFVSF, the dissociation constant Kd in test [2] (setting [30]) is 9.12 µM; in test [3] (setting [30]) it was at least 53.7 µM; in test [4] (setting [30]), 0.0155 µM; in test [5] (setting [30]), 0.0104 µM; in test [1] (setting [30]) it was 0.00422 µM.
Turning to HSKKKCDDL, the dissociation constant (Kd) in test [6] (setting [31]) is at least 53.9 µM; in test [7] (setting [31]), at least 69.4 µM; in test [8] (setting [31]) it was at least 70 µM; in [9] (setting [31]) it was at least 70.4 µM; in [10] (setting [31]), at least 77.1 µM; in test [11] (setting [31]), at least 78 µM. In addition, the dissociation constant (Kd) was at least 77.9 µM in test [12] (setting [31]); at least 77.9 µM in test [13] (setting [31]); at least 77.7 µM in [14] (setting [31]); at least 77.7 µM in test [15] (setting [31]); at least 69.8 µM in [16] (setting [31]); at least 66.8 µM in [17] (setting [31]). Moreover, the Kd was at least 57.7 µM in test [4] (setting [31]); at least 77.4 µM in test [18] (setting [31]); at least 51.9 µM in [19] (setting [31]); at least 57 µM in [20] (setting [31]); at least 78.1 µM in test [21] (setting [31]).
On to IKFAAGIII, for which, in test [1] (setting [30]), the equilibrium dissociation constant (Kd) worked out at 0.016 µM.
For the sequence IMALIVSIF, the Kd in [1] (source organism: Vaccinia virus) was 0.00453 µM.
Turning to KIGMFNLTF, the dissociation constant Kd in test [2] (setting [30]) is 4.76 µM; in test [3] (setting [30]) it was 0.000268 µM; in test [4] (setting [30]), at least 36.1 µM; in [5] (setting [30]), 0.000209 µM; in [1] (setting [30]), 0.0126 µM.
Take KKVIGFVSI: the Kd in [1] (setting [30]) is 0.00749 µM.
Turning to KTSSFKISK, the Kd in test [2] (setting [30]) is 0.0881 µM; in [3] (setting [30]), at least 23 µM; in test [4] (setting [30]), at least 31.4 µM; in [5] (setting [30]), at least 62.2 µM; in test [1] (setting [30]), at least 68 µM.
With KTSTLIFFV, the Kd in test [6] (setting [30]) stood at 1.88 µM; in [8] (setting [30]), 0.00138 µM; in [9] (setting [30]), 0.156 µM; in test [10] (setting [30]), 0.00176 µM; in [22], 9.12 µM; in test [23] it was 6.6 µM. Also, the Kd in test [24] is 4.81 µM; in test [25], 2.65 µM; in test [26], 0.251 µM; in test [16] (setting [30]) it was 0.0472 µM; in test [17] (setting [30]), at least 30.5 µM; in test [18] (setting [30]), at least 35.8 µM. For the same sequence, the Kd came to 11.4 µM in test [19] (setting [30]), 15 µM in test [20] (setting [30]) and 13.8 µM in test [21] (setting [30]).
In the case of LKSVETSSL, the Kd in test [1] (setting [29]) turned out to be 0.00376 µM.
Consider LPVIFLSIF, for which the dissociation constant Kd in test [1] (setting [30]) was found to be 0.162 µM.
For the sequence MMSMYGKAF, the Kd was determined as 0.00318 µM in [5] (setting [30]) and 0.00261 µM in [1] (setting [30]).
For the sequence NLLCHIYSL, the dissociation constant (Kd) in test [2] (setting [30]) turned out to be 0.0563 µM; in [3] (setting [30]) it was 0.231 µM; in test [4] (setting [30]), 0.000307 µM; in test [5] (setting [30]), 1.93 µM; in test [1] (setting [30]), 2.03 µM.
The like results for RIRRFRRPM were, in that order, 0.0044 µM, 0.769 µM, 0.00894 µM, 0.0362 µM and 0.0302 µM.
For the sequence RLYSEGLSI, the dissociation constant (Kd) in test [5] (setting [30]) was found to be 0.00453 µM; in [1] (setting [30]), 0.0319 µM.
Turning to SLTIKDSSNK, the dissociation constant (Kd) in test [7] (setting [30]) was at least 69.4 µM; in test [8] (setting [30]), at least 70 µM; in test [9] (setting [30]), at least 70.4 µM; in test [10] (setting [30]), at least 69.8 µM; in [11] (setting [30]) it was 9.78 µM; in [12] (setting [30]), at least 25.3 µM. Further, the dissociation constant Kd is at least 70 µM in test [13] (setting [30]); at least 70 µM in test [14] (setting [30]); at least 52.7 µM in [15] (setting [30]); at least 69.8 µM in test [16] (setting [30]); at least 52.3 µM in test [17] (setting [30]); at least 46.5 µM in [18] (setting [30]). In addition, the Kd was at least 69.6 µM in test [19] (setting [30]), at least 69.9 µM in test [20] (setting [30]) and at least 69.9 µM in test [21] (setting [30]).
As for SQYLSRVSL, the Kd in test [1] (setting [30]) was found to be 0.000235 µM.
For SSRRYRCSF, the dissociation constant (Kd) in test [4] (setting [30]) worked out at 0.0115 µM; in test [5] (setting [30]), 0.682 µM; in test [1] (setting [30]), 0.0545 µM.
SSVREVFYF: the Kd in test [1] (setting [30]) came to 0.123 µM.
For the sequence YEYVLIGIL, the Kd in [27] was 0.004 µM; in test [28], at most 0.001 µM.
For the sequence YTLYKKLSF, the Kd was 0.0226 µM in test [2] (setting [29]); 0.194 µM in [3] (setting [29]); 0.0163 µM in test [4] (setting [29]); 0.0143 µM in test [5] (setting [29]); 0.0382 µM in test [1] (setting [29]).
